Results published in patent US6780974B2, “Synthetic DNA encoding an orange seapen-derived green fluorescent protein with codon preference of mammalian expression systems and biosensors” (Cellomics, Inc., priority 2001, dated 2004).

B1: hPtFP DNA: synthetic DNA encoding hPtFP with codons favored for mammalian expression systems (nucleic acid)
DNA: AAGCTTGCCACCATGGTGAACCGGAACGTGCTGAAGAACACCGGCCTGAAGGAGATCATGAGCGCCAAGGCCAGCGTGGAGGGCATCGTGAACAACCACGTGTTCAGCATGGAGGGCTTCGGCAAGGGCAACGTGCTGTTCGGCAACCAGCTGATGCAGATCCGGGTGACCAAGGGCGGCCCTCTGCCCTTCGCCTTCGACATCGTGAGCATCGCCTTCCAGTACGGCAACCGGACCTTCACCAAGTATCCCGACGACATCGCCGACTACTTCGTGCAGAGCTTCCCTGCCGGCTTCTTCTACGAGCGGAACCTGCGGTTCGAGGACGGCGCCATCGTGGACATCCGGAGCGACATCAGCCTGGAGGACGACAAGTTCCACTACAAGGTGGAGTACCGCGGCAACGGCTTCCCTAGCAACGGCCCTGTGATGCAGAAGGCCATCCTGGGCATGGAGCCCAGCTTCGAGGTGGTGTACATGAACAGCGGCGTGCTGGTGGGCGAGGTGGACCTGGTGTACAAGCTGGAGAGCGGCAACTACTACAGCTGCCACATGAAGACCTTCTACCGGAGCAAGGGCGGCGTGAAGGAGTTCCCTGAGTACCTATTCATCCACCACCGGCTGGAGAAGAACTACGTGGAGGAGGGCAGCTTCGTGGAGCAGCACGAGACCGCCATCGCCCAGCTGACCACCATCGGCAAGCCTCTGGGCAGCCTGCACGAGTGGGTGTAAAGCGGCCGCAAGCTTGCCACCATGGTGAACCGGAACGTGCTGAAGAACACCGGCCTGAAGGAGATCATGAGCGCCAAGGCCAGCGTGGAGGGCATCGTGAACAACCACGTGTTCAGCATGGAGGGCTTCGGCAAGGGCAACGTGCTGTTCGGCAACCAGCTGATGCAGATCCGGGTGACCAAGGGCGGCCCTCTGCCCTTCGCCTTCGACATCGTGAGCATCGCCTTCCAGTACGGCAACCGGACCTTCACCAAGTATCCCGACGACATCGCCGACTACTTCGTGCAGAGCTTCCCTGCCGGCTTCTTCTACGAGCGGAACCTGCGGTTCGAGGACGGCGCCATCGTGGACATCCGGAGCGACATCAGCCTGGAGGACGACAAGTTCCACTACAAGGTGGAGTACCGCGGCAACGGCTTCCCTAGCAACGGCCCTGTGATGCAGAAGGCCATCCTGGGCATGGAGCCCAGCTTCGAGGTGGTGTACATGAACAGCGGCGTGCTGGTGGGCGAGGTGGACCTGGTGTACAAGCTGGAGAGCGGCAACTACTACAGCTGCCACATGAAGACCTTCTACCGGAGCAAGGGCGGCGTGAAGGAGTTCCCTGAGTACCTATTCATCCACCACCGGCTGGAGAAGAACTACGTGGAGGAGGGCAGCTTCGTGGAGCAGCACGAGACCGCCATCGCCCAGCTGACCACCATCGGCAAGCCTCTGGGCAGCCTGCACGAGTGGGTGTAAAGCGGCCGC
B2: hPtFP: full length humanized Ptilosarcus gurneyi green fluorescent protein, 239 amino acid residues, valine added at position 2 (protein)
chain: MVNRNVLKNTGLKEIMSAKASVEGIVNNHVFSMEGFGKGNVLFGNQLMQIRVTKGGPLPFAFDIVSIAFQYGNRTFTKYPDDIADYFVQSFPAGFFYERNLRFEDGAIVDIRSDISLEDDKFHYKVEYRGNGFPSNGPVMQKAILGMEPSFEVVYMNSGVLVGEVDLVYKLESGNYYSCHMKTFYRSKGGVKEFPEYHFIHHRLEKTYVEEGSFVEQHETAIAQLTTIGKPLGSLHEWV

What was measured:
Type in all cases: cell-based
COS1 cells [1] = assay: Fluorescence of COS1 cells transiently transfected with humanized versus wild type PtFP DNA (ARRAYSCAN II); conditions: transient transfection
Text: The difference at the nucleotide level (versus codon level) is that the hPtFP open reading frame (including the stop codon) contains 720 nucleotides, whereas the PtFP open reading frame (including the stop codon) contains 717 nucleotides. It will be appreciated by those skilled in the art, that without counting the extra valine introduced into hPtFP of the present invention, there are 166 nucleotide differences between the 717 nucleotides compared, or 23.15 percent difference (or 76.85% identity). If the stop codon is excluded in this comparison, there are 165 nucleotide differences in the 714 nucleotides compared, or 23.10 percent difference (or 76.9% identity). […]
To compare the expression of wild type Ptilosarcus gurneyi fluorescent protein DNA with humanized Ptilosarcus gurneyi green fluorescent protein synthetic DNA as described above, an expression vector for the wild type Ptilosarcus gurneyi DNA was constructed by cloning the wild type PtFP into the expression vector M2, and thus, these two expression vectors under comparison differed only in their coding regions. […] The purified DNA preps were quantitated by reading the optic absorption at 260 nm (nanometers) with a HP8453 UV—visible spectrophotometer (Agilent Technologies, Palo Alto, Calif., USA) and calculated based on 1 O.D.=[…] DNA. […]

HEK293 cells = assay: Percentage of hPtFP-positive cells in stably transfected HEK293 mixed population during passage (growth / toxicity); conditions: for toxicity to host cells: stably transfected mammalian host cells (HEK293)
Method: The cells were co-transfected with the hPtFP construct and pSV2-neo (Cat #37149, ATCC, Manassas, Va., USA) with FUGENE 6 transfection reagent (Roche Molecular Biochemicals, Indianapolis, Ind., USA) following the manufacturer's instructions. Two days after transfection, cells were treated with 0.4 mg/ml (milligram/milliliter) G418 in normal growth medium. After treating with G418 for two weeks, drug resistant cells were isolated or pooled. A mixture of stably transfected HEK293 mixed population (in which about 30% of the cells expressing hPtFP of this invention) were plated out in 96 cell micro plates. After 2, 4, or 6 days incubation, the cells were fixed with 3.7% formaldehyde for 20 minutes at room temperature (25° Centigrade). The percentage of positive cells was quantitated with ARRAYSCAN II instrument, as described herein.
To compare the growth rates of cells expressing or not expressing hPtFP, a mixture of stably transfected HEK293 mixed population (in which about 30% of the cells expressing hPtFP of this invention) were plated out in 96-well micro plates. After 2, 4, or 6 days incubation, the cells were fixed with 3.7% (percent) formaldehyde for twenty minutes at room temperature (25 degrees Centigrade). The percentage of positive cells was quantitated with ARRAYSCAN II instrument, as described herein.

COS1 cells [2] = assay: In situ absorption and emission spectra of live COS1 cells expressing hPtFP; conditions: in COS-1 cells
Method: Forty-eight hours after initial transfection with the synthetic green fluorescent protein DNA of the present invention, COS1 cells were trypsinized and were kept in suspension. The absorption and emission spectra of the live cells expressing the hPtFP of the present invention were then measured, as shown in FIG. 2.

| Molecule | number and brightness of expressing cells compared with wild type PtFP DNA (visual observation) (COS1 cells [1]) | fluorescent signal compared with wild type Ptilosarcus gurneyi green fluorescent protein (COS1 cells [1]; identical amount of DNA, forty hours post-transfection, intensity in nuclear area (FIG. 3)) | toxicity to host cells (HEK293 cells) | percentage of positive cells during cell passage (HEK293 cells; HEK293 mixed population, about 30% expressing hPtFP, 2, 4 or 6 days incubation, no selection (FIG. 5)) | absorption and emission spectra compared with wildtype Ptilosarcus gurneyi (COS1 cells [2]) |
| --- | --- | --- | --- | --- | --- |
| B1 | more hPtFP expressing cells and brighter cells than the wild type | stronger fluorescent signals than the wild type | does not have toxic effects on the host cells |  |  |
| B2 |  |  | not toxic to the cells | did not change | unchanged |
